According to patent US20250161478A1 (GLYKOS FINLAND, published 2025):
Like-named read-outs stand apart in the source and are kept apart here.

Tests used:
Experiment in all cases: cell-based or functional assay
[1] = target: T1, TYRP1 antigen on human melanoma cells (IGR-1, SK-MEL-30, SK-MEL-28) (human, UniProt P17643 25-537)
[2] = target: T1, TYRP1 antigen on human melanoma cells …; remark: listed apart in the source
[3] = target: T1, TYRP1 antigen on human melanoma cells …; remark: listed apart in the source
[4] = target: T2, CD33 on leukemia cell lines (HL-60, MOLM-13, KG-1, K-562) (UniProt P20138 18-364, limits assumed)
[5] = target: T1, TYRP1 antigen on human melanoma cells …; remark: listed apart in the source
[6] = target: T1, TYRP1 antigen on human melanoma cells …; remark: listed apart in the source
[7] = target: T2, CD33 on leukemia cell lines (HL-60, …); remark: listed apart in the source
[8] = target: T2, CD33 on leukemia cell lines (HL-60, …); remark: listed apart in the source
[9] = target: T1, TYRP1 antigen on human melanoma cells …; remark: listed apart in the source

T2 sequence (P20138 18-364 limits assumed): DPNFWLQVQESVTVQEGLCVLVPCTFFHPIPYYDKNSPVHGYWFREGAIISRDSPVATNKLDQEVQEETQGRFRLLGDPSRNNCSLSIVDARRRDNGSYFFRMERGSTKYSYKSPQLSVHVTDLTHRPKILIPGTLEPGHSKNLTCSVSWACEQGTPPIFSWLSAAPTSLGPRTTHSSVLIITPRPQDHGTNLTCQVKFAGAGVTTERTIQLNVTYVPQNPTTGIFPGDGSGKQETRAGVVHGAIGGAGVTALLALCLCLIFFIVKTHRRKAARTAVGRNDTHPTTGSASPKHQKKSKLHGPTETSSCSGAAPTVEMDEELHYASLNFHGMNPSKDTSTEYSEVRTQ

B1: FLCPeMala (cysteine engineered flanvotumab HC N299C conjugated with MA-Ac-β-Ala-EDA-PNU), DAR 2.0 (antibody, human IgG1, kappa)
heavy: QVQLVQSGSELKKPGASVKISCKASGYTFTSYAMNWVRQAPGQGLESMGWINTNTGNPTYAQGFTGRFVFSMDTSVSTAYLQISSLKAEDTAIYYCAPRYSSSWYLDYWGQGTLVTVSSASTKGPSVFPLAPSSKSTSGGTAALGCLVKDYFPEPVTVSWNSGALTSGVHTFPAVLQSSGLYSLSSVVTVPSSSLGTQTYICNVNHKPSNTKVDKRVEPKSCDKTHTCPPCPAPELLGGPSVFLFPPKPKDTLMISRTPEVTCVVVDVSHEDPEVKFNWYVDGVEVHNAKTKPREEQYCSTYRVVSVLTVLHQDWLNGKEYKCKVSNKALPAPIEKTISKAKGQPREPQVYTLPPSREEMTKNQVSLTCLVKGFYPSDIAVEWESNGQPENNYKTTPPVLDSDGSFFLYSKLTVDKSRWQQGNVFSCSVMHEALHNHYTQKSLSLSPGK
light: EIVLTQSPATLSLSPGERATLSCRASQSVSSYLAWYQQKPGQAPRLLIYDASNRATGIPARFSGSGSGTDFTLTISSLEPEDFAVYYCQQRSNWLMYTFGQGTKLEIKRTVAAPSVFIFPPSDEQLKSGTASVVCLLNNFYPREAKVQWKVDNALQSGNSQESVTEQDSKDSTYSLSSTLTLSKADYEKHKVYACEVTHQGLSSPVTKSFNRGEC
modifications: PeMala linker-payload (maleimidoacetyl-β-Ala-EDA-PNU) on the engineered cysteine (N299C); DAR 2.0
IC50, cell viability (PrestoBlue), IGR-1 cells [1]: 0.649 nM

B2: FLCPeMcv (cysteine engineered flanvotumab HC N299C conjugated with MA-caproyl-Val-Cit-PAB-EDA-PNU), DAR 1.4 (antibody, human IgG1, kappa)
heavy: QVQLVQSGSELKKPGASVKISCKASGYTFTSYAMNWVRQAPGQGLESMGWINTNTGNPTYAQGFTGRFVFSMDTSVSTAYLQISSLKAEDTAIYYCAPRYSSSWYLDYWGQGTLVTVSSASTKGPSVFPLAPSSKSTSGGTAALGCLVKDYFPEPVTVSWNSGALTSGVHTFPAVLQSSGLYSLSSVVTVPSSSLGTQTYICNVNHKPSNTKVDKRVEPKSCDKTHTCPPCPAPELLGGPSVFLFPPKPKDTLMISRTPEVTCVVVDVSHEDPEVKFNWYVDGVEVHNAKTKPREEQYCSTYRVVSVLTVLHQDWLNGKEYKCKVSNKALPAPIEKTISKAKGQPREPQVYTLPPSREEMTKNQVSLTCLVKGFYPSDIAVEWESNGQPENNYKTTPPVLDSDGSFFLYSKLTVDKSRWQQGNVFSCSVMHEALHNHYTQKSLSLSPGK
light: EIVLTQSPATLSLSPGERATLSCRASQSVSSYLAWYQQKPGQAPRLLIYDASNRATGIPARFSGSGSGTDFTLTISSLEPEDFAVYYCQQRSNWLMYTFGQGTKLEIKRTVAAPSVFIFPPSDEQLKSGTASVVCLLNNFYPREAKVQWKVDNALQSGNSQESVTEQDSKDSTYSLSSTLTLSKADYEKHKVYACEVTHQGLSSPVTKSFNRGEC
modifications: PeMcv linker-payload (MA-caproyl-Val-Cit-PAB-EDA-PNU) on the engineered cysteine (N299C); DAR 1.4
IC50, cell viability (PrestoBlue), IGR-1 cells [2]: 0.414 to 0.716 nM | IC50, cell viability (PrestoBlue), SK-MEL-30 cells [2]: 2.8 to 4 nM

B3: FLCPeMa (cysteine engineered flanvotumab HC N299C conjugated with MA-Ac-EDA-PNU), DAR 1.7 (antibody, human IgG1, kappa)
heavy: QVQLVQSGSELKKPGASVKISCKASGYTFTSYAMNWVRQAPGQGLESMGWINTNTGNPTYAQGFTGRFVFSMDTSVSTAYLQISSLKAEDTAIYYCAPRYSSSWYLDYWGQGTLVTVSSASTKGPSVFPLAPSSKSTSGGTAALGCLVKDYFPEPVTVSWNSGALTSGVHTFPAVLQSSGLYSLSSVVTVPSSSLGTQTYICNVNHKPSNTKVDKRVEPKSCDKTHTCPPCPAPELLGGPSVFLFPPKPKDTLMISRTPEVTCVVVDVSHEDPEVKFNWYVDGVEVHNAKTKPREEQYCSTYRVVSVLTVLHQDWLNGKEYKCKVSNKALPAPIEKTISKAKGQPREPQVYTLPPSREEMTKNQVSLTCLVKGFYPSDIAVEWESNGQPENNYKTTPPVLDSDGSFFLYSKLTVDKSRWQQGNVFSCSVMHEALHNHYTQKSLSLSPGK
light: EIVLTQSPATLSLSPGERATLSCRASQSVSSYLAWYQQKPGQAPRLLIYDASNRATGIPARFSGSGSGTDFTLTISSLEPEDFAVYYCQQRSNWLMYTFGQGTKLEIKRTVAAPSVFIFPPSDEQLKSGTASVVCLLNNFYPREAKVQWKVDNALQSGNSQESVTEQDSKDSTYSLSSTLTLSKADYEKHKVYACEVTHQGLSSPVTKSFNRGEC
modifications: PeMa linker-payload (maleimidoacetyl-EDA-PNU) on the engineered cysteine (N299C); DAR 1.7
IC50, cell viability (PrestoBlue), IGR-1 cells [3]: 1.2 nM | IC50, cell viability (PrestoBlue), SK-MEL-30 cells [3]: 22 nM

B4: GMAuM (gemtuzumab-maleimidoacetyl-β-Ala-Val-Ser(Glc)-PAB-MMAU), DAR 8 (antibody, human IgG4 S228P, kappa, V domains shown)
VH: EVQLVQSGAEVKKPGSSVKVSCKASGYTITDSNIHWVRQAPGQSLEWIGYIYPYNGGTDYNQKFKNRATLTVDNPTNTAYMELSSLRSEDTAFYYCVNGNPWLAYWGQGTLVTVSS
VL: DIQLTQSPSTLSASVGDRVTITCRASESLDNYGIRFLTWFQQKPGKAPKLLMYAASNQGSGVPSRFSGSGSGTEFTLTISSLQPDDFATYYCQQTKEVPWSFGQGTKVEVKR
modifications: AuM linker-payload on reduced interchain cysteine; AuM linker-payload (maleimidoacetyl-β-Ala-Val-Ser(Glc)-PAB-MMAU) on reduced interchain cysteines; DAR 8.0 in all
IC50, cytotoxicity, HL-60 cells, 5 days [4]: 0.583 nM | IC50, cytotoxicity, K-562 (low CD33) cells, 3 days [4]: 241 nM | IC50, cytotoxicity, MOLM-13 cells, 3 days [4]: 0.206 nM

B5: CHPeD (glycoconjugated chimeric TA99-DBCO-Val-Ser(GlcA)-EDA-PNU ADC), DAR 2 (antibody, human IgG1, kappa, V domains shown)
VH: EVQLQQSGAELVRPGALVKLSCKTSGFNIKDYFLHWVRQRPDQGLEWIGWINPDNGNTVYDPKFQGTASLTADTSSNTVYLQLSGLTSEDTAVYFCTRRDYTYEKAALDYWGQGTTVTVST
VL: IQMSQSPASLSASVGETVTITCRASGNIYNYLAWYQQKQGKSPHLLVYDAKTLADGVPSRFSGSGSGTQYSLKISSLQTEDSGNYYCQHFWSLPFTFGSGTKLEIKR
modifications: DBCO-Val-Ser(GlcA)-EDA-PNU on GalNAz of the trimmed Fc N-glycan; DAR 2
IC50, cell viability (PrestoBlue), IGR-1 cells [5]: 1.4 nM | IC50, cell viability (PrestoBlue), SK-MEL-28 cells [5]: 55 nM | IC50, cell viability (PrestoBlue), SK-MEL-30 cells [5]: 5.7 nM

B6: CHAuM (chimeric TA99-maleimidoacetyl-β-Ala-Val-Ser(Glc)-PAB-MMAU), DAR 6 (antibody, human IgG1, kappa, V domains shown)
VH: B5 VH
VL: B5 VL
modifications: AuM linker-payload on reduced interchain cysteine; AuM linker-payload (maleimidoacetyl-β-Ala-Val-Ser(Glc)-PAB-MMAU) on reduced interchain cysteines; DAR 6 in all
IC50, cell viability (PrestoBlue), IGR-1 cells [6]: 2.2 nM | IC50, cell viability (PrestoBlue), SK-MEL-28 cells [6]: > 300 nM | IC50, cell viability (PrestoBlue), SK-MEL-30 cells [6]: 48 nM

B7: LNCAuM (cysteine engineered lintuzumab HC N296C-maleimidoacetyl-β-Ala-Val-Ser(Glc)-PAB-MMAU), DAR 1.7 (antibody, human IgG1, kappa, V domains shown)
VH: QVQLVQSGAEVKKPGSSVKVSCKASGYTFTDYNMHWVRQAPGQGLEWIGYIYPYNGGTGYNQKFKSKATITADESTNTAYMELSSLRSEDTAVYYCARGRPAMDYWGQGTLVTVSS
VL: DIQMTQSPSSLSASVGDRVTITCRASESVDNYGISFMNWFQQKPGKAPKLLIYAASNQGSGVPSRFSGSGSGTDFTLTISSLQPDDFATYYCQQSKEVPWTFGQGTKVEIKR
modifications: AuM linker-payload (maleimidoacetyl-β-Ala-Val-Ser(Glc)-PAB-MMAU) on the engineered cysteine (N296C); DAR 1.7
IC50, cytotoxicity, HL-60 cells, 5 days [7]: 16 nM

B8: LNCAuMb (cysteine engineered lintuzumab HC N296C conjugated with branched N-MAL-N-bis(Peg2)-Val-Ser(Glc)-PAB-MMAU), DAR 3.3 (antibody, human IgG1, kappa, V domains shown)
VH: B7 VH
VL: B7 VL
modifications: branched AuMb linker-payload (N-MAL-N-bis(Peg2)-Val-Ser(Glc)-PAB-MMAU) on the engineered cysteine (N296C); DAR 3.3
IC50, cytotoxicity, HL-60 cells, 5 days [8]: 2.2 nM

B9: FLCPeMg (cysteine engineered flanvotumab HC N299C conjugated with MA-Ac-β-Ala-VS(GlcA)-EDA-PNU), DAR 2.2 (antibody, human IgG1, kappa)
heavy: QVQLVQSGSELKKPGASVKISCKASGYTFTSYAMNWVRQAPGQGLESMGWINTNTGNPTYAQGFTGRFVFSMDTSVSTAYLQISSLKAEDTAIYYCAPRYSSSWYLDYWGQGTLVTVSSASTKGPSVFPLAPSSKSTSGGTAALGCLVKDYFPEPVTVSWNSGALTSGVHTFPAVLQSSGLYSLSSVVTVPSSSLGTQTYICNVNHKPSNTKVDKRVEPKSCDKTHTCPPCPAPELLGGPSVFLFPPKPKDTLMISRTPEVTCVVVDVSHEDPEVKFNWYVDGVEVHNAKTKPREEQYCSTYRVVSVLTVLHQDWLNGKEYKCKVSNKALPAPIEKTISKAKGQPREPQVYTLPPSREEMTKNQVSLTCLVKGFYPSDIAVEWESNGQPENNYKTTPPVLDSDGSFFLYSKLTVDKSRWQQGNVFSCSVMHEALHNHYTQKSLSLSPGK
light: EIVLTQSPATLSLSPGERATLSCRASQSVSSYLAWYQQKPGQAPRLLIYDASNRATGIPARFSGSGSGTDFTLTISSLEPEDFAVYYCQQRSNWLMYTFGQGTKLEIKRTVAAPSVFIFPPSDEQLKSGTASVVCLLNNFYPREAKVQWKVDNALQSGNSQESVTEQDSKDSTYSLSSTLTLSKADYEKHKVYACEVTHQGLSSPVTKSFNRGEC
modifications: PeMg linker-payload (maleimidoacetyl-β-Ala-Val-Ser(GlcA)-EDA-PNU) on the engineered cysteine (N299C); DAR 2.2
IC50, cell viability (PrestoBlue), IGR-1 cells [9]: 0.417 to 0.484 nM | IC50, cell viability (PrestoBlue), SK-MEL-30 cells [9]: 4.3 to 10 nM
